31 molecules from US20230295259A1 (Protagonist Therapeutics, Inc., priority 2020, published 2023) can be followed below.

Starred links: 1 amine or outer side, 2 acyl side, 3 side chain; linkers in the order of their positions; H or OH if unused. Positions of bridges follow the written chain, without caps; N, C: chain ends. Non-standard residues stand in square brackets, D forms with d. Residues, ends and D or L forms follow the SMILES beside them. Groups on a side chain read outwards from the residue. Primed or numbered codes have the meaning given here. ξ: configuration not given here. *: point of attachment. 2Peg11′ = —[C(O)—CH2—CH2—(OCH2CH2)12—NH]— (PEG12 unit); PEG12 = NCCOCCOCCOCCOCCOCCOCCOCCOCCOCCOCCOCCOCCC(=O)O; X11 = NCCCC[C@@H](N[*:2])C(=O)C[C@@H](CS[*:1])C(N)=O; C18 diacid = O=C(O)CCCCCCCCCCCCCCCCC(=O)*; Dip = N[C@H](C(=O)O)C(c1ccccc1)c1ccccc1; X10 = CCC(=O)CC[C@H](N[*:1])C(=O)[*:2]; γGlu = O=C(O)[C@H](CCC(=O)[*:2])N[*:1]; X9 = O=C([C@@H](N[*:1])SC[*:3])[*:2]; Palmitoyl = CCCCCCCCCCCCCCCC(=O)*; β3hF = N[C@H](CC(=O)O)Cc1ccccc1; Aic = NC1(C(=O)O)Cc2ccccc2C1; hLeu = CC(C)CC[C@H](N)C(=O)O; ξIle = CC[C@H](C)C(N)C(=O)O; Isovaleryl = CC(C)CC(=O)*; Dap = NC[C@H](N)C(=O)O; AEEA = NCCOCCOCC(=O)O; Npc = nipecotic acid; Ahx = NCCCCCC(=O)O

B1: Compound 6 (peptide)
peptide: XETHXPCIXXXXC
modifications: Isovaleric Acid-E-T-H-[Dpa]-P-[Cys]-I-[(D)Lys]-[bhPhe]-[Lys(Ahx_Palm)]-[(D)Lys]-[Cys]-NH2
B2: Compound 53 (peptide)
peptide: XETHXPCIXXXC
modifications: Isovaleric Acid-E-T-H-[(4F)Phe]-P-[Cys]-I-[Lys(2Peg11′_Palm)]-[bhPhe]-[(D)Lys]-[Cys]-NH2
B3: Compound 19 (peptide)
peptide: XETHXPCIXXXXC
modifications: Isovaleric Acid-E-T-H-[Dpa]-P-[Cys]-I-[(D)Lys(2Peg11′_OMe)]-[bhPhe]-[Lys(Ahx_Palm)]-[(D)Lys(2Peg11′_OMe)]-[Cys]-NH2
B4: Compound 202 (peptide)
peptide: XETXXPCIXXXC
modifications: Isovaleric Acid-E-T-[His_1Me]-[Dpa]-P-C-I-[Lys(PEG12_Palm)]-[bhPhe]-[(D)Lys]-C-NH2
B5: Compound 98 (peptide)
peptide: XETHXPCIXXXC
modifications: not fully specified; [Diacid_C18_isoGlu_PEG2_PEG2]-E-T-H-[Dpa]-P-[Cys]-I-[(D)Lys]-[bhPhe]-[(D)Lys]-[Cys]-NH2
B6: Compound 2 (peptide)
peptide: XETHXPCIXXXXC
modifications: Isovaleric Acid-E-T-H-[Dpa]-P-[Cys]-I-[(D)Lys]-[Dpa]-[Lys(2Peg11′_Palm)]-[(D)Lys]-[Cys]-NH2
B7: Compound 123 (peptide)
peptide: XETHXPCIXXXCX
modifications: Isovaleric Acid-E-T-H-[Dpa]-P-[Cys]-I-[Lys(Ac)]-[bhPhe]-[(D)Lys(Ac)]-[Cys]-[(D)Glu]-NH2
B8: Compound 99 (peptide)
peptide: XETHXPCIXXXC
modifications: [C18_diacid_Ahx_PEG2_PEG2]-E-T-H-[Dpa]-P-[Cys]-I-[(D)Lys]-[bhPhe]-[(D)Lys]-[Cys]-NH2
B9: Compound 12 (peptide)
peptide: XETHXPCIXXXC
modifications: Isovaleric Acid-E-T-H-[Dpa]-P-[Cys]-I-[Lys(1Peg2_1Peg2_Ahx_C18_Diacid)]-[bhPhe]-[(D)Lys]-[Cys]-NH2
B10: Compound 113 (peptide)
peptide: XETHXPCIXXXC
modifications: Isovaleric Acid-E-T-H-[Dpa]-P-[Cys]-I-[Lys(2Peg11′_C18_Diacid)]-[bhPhe]-[(D)Lys]-[Cys]-NH2

In one assay the target is T1, ferroportin endogenously expressed on T47D human breast carcinoma cells (human, UniProt Q9NP59 1-571).
T1 sequence (looked up): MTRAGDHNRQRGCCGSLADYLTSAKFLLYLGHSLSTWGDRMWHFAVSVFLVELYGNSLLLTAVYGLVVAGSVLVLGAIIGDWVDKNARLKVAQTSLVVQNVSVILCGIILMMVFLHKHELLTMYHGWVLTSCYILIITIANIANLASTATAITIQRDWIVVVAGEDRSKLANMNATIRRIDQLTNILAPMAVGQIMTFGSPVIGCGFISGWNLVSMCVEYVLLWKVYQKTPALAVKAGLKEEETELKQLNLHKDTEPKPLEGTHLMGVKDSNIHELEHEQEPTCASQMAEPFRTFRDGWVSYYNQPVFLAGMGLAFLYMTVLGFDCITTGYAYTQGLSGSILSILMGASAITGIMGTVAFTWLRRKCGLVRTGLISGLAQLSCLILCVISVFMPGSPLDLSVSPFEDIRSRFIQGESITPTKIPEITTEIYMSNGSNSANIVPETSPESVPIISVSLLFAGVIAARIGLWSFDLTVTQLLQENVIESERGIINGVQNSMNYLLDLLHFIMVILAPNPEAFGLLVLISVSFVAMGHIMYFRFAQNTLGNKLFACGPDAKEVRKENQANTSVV
The assay can be described thus: cell-based or functional assay.
Conditions: not given
As for B1, the “IC50: T47D Internalization MSA” value was 1.95 nM. Take B2: the “IC50: T47D Internalization MSA” value was 1.3 nM. Same read-out and setting: next, B3: 2.56 nM; B4: 4.3 nM; Isovaleryl-ETHFPCIK([γGlu-C18 diacid])FEPRSKGCK-NH2 (not fully specified (bridges); cysteine pairing not given here) [Compound 222]: more than 1000 nM.

The next assay deals with LAD2 cells.
Assay: not given
Format: cell-based, human. The conditions noted are these: LAD2 mast cells, β-hexosaminidase release, 30 minutes incubation; read-out: EC50: LAD2. The source says:
In anaphylactoid reactions, the main mechanism involves the direct stimulation of mast cells or basophils, leading to the release of anaphylactic mediators such as histamine and β-hexosaminidase. A recent study by McNeil et al. (McNeil B D et al., 2015) reported that MrgprX2, a specific membrane receptor on human mast cells, induces anaphylactoid reactions. The LAD2 (Laboratory of Allergic Diseases 2) human mast cell line, derived from human mast cell sarcoma/leukemia (Kirshenbaum et al., 2003), is commonly employed to study anaphylactoid reactions, because its biological properties are identical to those of primary human mast cells, including the overexpression of the MrgprX2 receptor and sensitivity towards degranulating peptides (Kulka et al., 2008). The release of anaphylactic mediators such as f-hexosaminidase, is assessed by fluorometric quantification.
On the day of the assay, serial dilutions of compounds were added to LAD2 cells plated at 20000 cells/well in a 96-well plate. After incubation for 30 minutes, the amount of β-hexosaminidase released into the supernatants and in cell lysates was quantified using the fluorogenic substrate 4-methylumbelliferyl-N-acetyl-b-D-glucosaminide. Dose-response curves were generated by plotting the % of β-hexosaminidase release (y-axis) against the concentrations of peptides tested (x-axis). […]. (Table 2D).
“Isovaleric Acid-E-T-H-[Dpa]-P-[Cys]-I-[Lys(2Peg11′_Palm)]-[bhPhe]-[Lys(2Peg20K)]-R-[Cys]-NH2 [Compound 47]”: the EC50 (commonly the concentration at which the effect is half-maximal) was more than 12500 nM.

The target in a further assay is T2, human ferroportin (Homo sapiens, UniProt Q9NP59).
T2 construct: expressed in transfected cells
T2 sequence (Q9NP59 1-571): T1 sequence (looked up)
The assay can be described thus: FPN activity assay: internalization/degradation of ferroportin-GFP in stably transfected HEK293 cells (decrease in GFP fluorescence). In kind it is cell-based. The conditions noted are these: Table 2A; HEK293 cells expressing human ferroportin-GFP, at least 18 hours incubation. The procedure: Following internalization, the ferroportin protein is degraded.
A retro inverse peptide is a peptide with a reversed sequence in all D amino acids. An example is that Hy-Glu-Thr-His-NH2 becomes Hy-DHis-DThr-DGlu-NH2. The EC50 of these reference compounds for ferroportin internalization/degradation was determined according to the FPN activity assay described above. These peptides served as control standards.
These values were determined as described herein.
“Isovaleric Acid-E-T-H-[Dpa]-P-[Cys]-I-[Lys(Ac)]-[bhPhe]-[Lys(2Peg20K)]-R-[Cys]-NH2 [Compound 46]”: the half-maximal effective concentration (EC50) was more than 3000 nM. Consider “Isovaleric Acid-E-T-H-[Dpa]-P-[Cys]-I-[Lys(Ahx_PEG20K)]-[bhPhe]-R-[Cys]-NH2 [Compound 51]”, for which the EC50 was found to be 103 nM. Same read-out and setting: to “Isovaleric Acid-E-T-H-[Dpa]-P-[Cys]-I-[Lys(2Peg11′_Palm)]-[bhPhe]-[Lys(2Peg20K)]-R-[Cys]-NH2 [Compound 47]” belongs 58.2 nM; to “Isovaleric Acid-E-T-H-[Dpa]-P-[Cys]-I-[Lys(2Peg20K)]-[bhPhe]-[Lys(2Peg11′_Palm)]-R-[Cys]-NH2 [Compound 50]”, 3.31 nM.

Still in this assay, the particulars now being: Table 2B; HEK293 cells expressing human ferroportin-GFP, at least 18 hours incubation.
Molecule “Isovaleric Acid-E-T-H-[Dpa]-P—C—I-[Lys(PEG40KB)]-[bhPhe]-[Lys(PEG12_Palm)]-R—C—NH2 [Compound 296]” yielded an EC50 of 1080 nM. In turn, “Isovaleric Acid-E-T-H-[Dpa]-P—C—I-[Lys(1PEG2_1PEG2_Ahx_C18_Diacid)]-[bhPhe]-[(D)Lys(PEG40KB-C—NH2 [Compound 297]” showed an EC50 of 1360 nM. Same read-out and setting: next, “Isovaleric Acid-E-T-H-[Dpa]-P—C—I-[Lys(PEG12_Palm)]-[bhPhe]-[Lys(PEG40KB)]-R—C—NH2 [Compound 295]”: 1780 nM; “Isovaleric Acid-E-T-H-[Dpa]-P—C—I-[Lys(Ahx_Palm)]-[bhPhe]-[(D)Lys(PEG20K)]-C—NH2 [Compound 312]”: 32.6 nM; “Isovaleric Acid-E-T-H-[Dpa]-P—C—I-[Lys(1PEG2_1PEG2_Ahx_Palm)]-[bhPhe]-[(D)Lys(PEG20K-C—NH2 [Compound 314]”: 357 nM.

Staying with this assay, now noted: Table 2D (Illustrative Monomer Hepcidin Analogues); ferroportin-GFP HEK293 cells; read-out: IC50: FPN internalisation.
Regarding `COC(=O)CC[C@H](NC(=O)CC(C)C)C(=O)N[C@H](C(=O)N[C@@H](Cc1cnc[nH]1)C(=O)N[C@H](C(=O)N1CCC[C@H]1C1CSSC[C@@H](C(N)=O)NC(=O)[C@@H](CCCCN)NC(=O)C[C@H](Cc2ccccc2)NC(=O)[C@H](CCCCNC(=O)COCCOCCNC(=O)COCCOCCNC(=O)[C@H](CN)NC(=O)CCCCCCCCCCCCCCCCC(=O)O)NC(=O)C2(CCCCC2)NC1=O)C(c1ccccc1)c1ccccc1)[C@@H](C)O` (some centres unmarked) [Compound 512], the DC50 amounted to 37.4 nM.

For the molecule `CC[C@H](C)[C@@H]1NC(=O)[C@@H](NC(=O)[C@@H]2CCCN2C(=O)[C@@H](NC(=O)[C@H](Cc2ccncc2)NC(=O)[C@@H](NC(=O)[C@H](CCC(=O)OC)NC(=O)CC(C)C)[C@@H](C)O)C(c2ccccc2)c2ccccc2)CSSC[C@@H](C(N)=O)NC(=O)[C@@H](CCCCN)NC(=O)C[C@H](Cc2ccccc2)NC(=O)[C@H](CCCCNC(=O)COCCOCCNC(=O)COCCOCCNC(=O)[C@H](CN)NC(=O)CCCCCCCCCCCCCCCCC(=O)O)NC1=O` [Compound 499], the DC50 is 14.3 nM. Same read-out and setting: to `CC[C@H](C)C1NC(=O)[C@@H](NC(=O)[C@@H]2CCCN2C(=O)[C@@H](NC(=O)[C@H](Cc2cnc[nH]2)NC(=O)[C@@H](NC(=O)[C@H](CCC(=O)OC)NC(=O)CC(C)C)[C@@H](C)O)C(c2ccccc2)c2ccccc2)SCSC[C@@H](C(N)=O)NC(=O)[C@@H](CCCCN)NC(=O)C2(Cc3ccccc3C2)NC(=O)[C@H](CCCCNC(=O)COCCOCCNC(=O)COCCOCCNC(=O)[C@H](CN)NC(=O)CCCCCCCCCCCCCCCCC(=O)O)NC1=O` (some centres unmarked) [Compound 506] (Isovaleryl-E(OMe)TH[Dip]P[X9][ξIle]K([AEEA-AEEA-Dap-C18 diacid])[Aic][dK]C-NH2; thioether 6-11) belongs 31.3 nM; to `CCC(=O)CC[C@H](NC(=O)CC(C)C)C(=O)N[C@H](C(=O)N[C@@H](Cc1cnc[nH]1)C(=O)N[C@H](C(=O)N1CCC[C@H]1C(=O)N[C@H]1CSSC[C@@H](C(N)=O)CC(=O)[C@@H](CCCCN)NC(=O)[C@H](CCC(C)C)NC(=O)[C@H](CCCCNC(=O)COCCOCCNC(=O)COCCOCCNC(=O)[C@H](CN)NC(=O)CCCCCCCCCCCCCCCCC(=O)O)NC(=O)[C@H]([C@@H](C)CC)NC1=O)C(c1ccccc1)c1ccccc1)[C@@H](C)O` [Compound 509] (Isovaleryl-[X10]TH[Dip]PCIK([AEEA-AEEA-Dap-C18 diacid])[hLeu]; linker 6-C via X11), 20.6 nM.

A further assay has as its target T3, human ferroportin (SLC40A1) fused in frame with GFP, stably expressed in HEK293 cells (human, UniProt Q9NP59 1-571).
T3 sequence (looked up): T1 sequence (looked up)
Briefly: cell-based or functional assay.
Conditions: not given
Turning to Isovaleryl-ETH[Dip]PCIK(Ac)[β3hF]K(2Peg20K)RC-NH2 (disulfide 6-12 (inferred)) [Compound 46], the “FPN EC50” value was more than 3000 nM. Still for that read-out and setting: next, B5: more than 3000 nM; Isovaleryl-ETH[Dip]PCI[dK][β3hF]K([PEG12-Palmitoyl])RC-NH2 (disulfide 6-12 (inferred)) [Compound 27]: 20 nM. Same read-out and setting: next, B6: 5 nM; Isovaleryl-ETH[Dip]PCIK(2Peg20K)[β3hF]K([PEG12-Palmitoyl])RC-NH2 (disulfide 6-12 (inferred)) [Compound 50]: 3.31 nM; Isovaleryl-ETH[Dip]PCIK([2Peg11′-Palmitoyl])[β3hF]K(2Peg20K)RC-NH2 (disulfide 6-12 (inferred)) [Compound 47]: 58.2 nM.

Consider Isovaleryl-ETH[Dip]PCIK([Ahx-PEG20K])[β3hF]RC-NH2 (disulfide 6-11 (inferred)) [Compound 51], for which the “FPN EC50” value turned out to be 103 nM. On the same count and under the same terms, to Isovaleryl-ETH[Dip][Npc]CI[dK][β3hF]K([Ahx-Palmitoyl])[dK]C-NH2 (disulfide 6-12 (inferred)) [Compound 5] belongs 2.88 nM; to B7, 90 nM; to B8, more than 3000 nM. Still for that read-out and setting: next, B9: 9.81 nM; Isovaleryl-ETH[Dip]PCIK(Ac)[β3hF]KRC-NH2 (disulfide 6-12 (inferred)) [Compound 42]: more than 3000 nM.

Take B10: the “FPN EC50” value stood at 8.06 nM.
